According to patent publication US20080242557A1, “System For Detecting Molecular Interactions” (CGK CO., LTD., priority 2004, published 2008):

Key:
[1] = molecular target: T1, Caspase-3 (Homo sapiens, UniProt P42574); assay: Magnetic-field translocation of mRFP-Caspase3 by DEVD-MNPs in HeLa cells; type: cell-based; conditions: EGFP expressing cells as negative control showed no motion
T1 construct: mRFP (N); expressed in transfected cells; host or cells: HeLa
T1 sequence (P42574 29-277): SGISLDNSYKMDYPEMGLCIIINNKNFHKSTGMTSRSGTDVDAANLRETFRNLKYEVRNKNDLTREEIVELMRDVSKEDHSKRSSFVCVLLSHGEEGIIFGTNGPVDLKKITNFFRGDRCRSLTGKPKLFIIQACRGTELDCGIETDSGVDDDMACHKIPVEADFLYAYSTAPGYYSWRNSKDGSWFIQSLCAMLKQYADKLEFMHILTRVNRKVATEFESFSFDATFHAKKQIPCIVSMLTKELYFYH
Experimental: A DEVD-MNPs complex was obtained by reacting a Streptavidin nanoparticle, caspase-3 inhibitor II (DEVD)-biotin conjugate (CALBIOCHEM) and TATHA2-biotin at 40 C for 1 hr while agitating the reaction mixture. Unbound ligands were removed from the reaction mixture by purifying the complex using a paramagnet. After introducing mRFP-Caspase3 or EGFP expressing plasmid into a HeLa cell (ATCC), the cell was incubated. The DEVD-MNPs were introduced into the cell, and a magnetic field (M.F.) was externally applied to the cell using a paramagnet or electromagnet. The confocal images were captured using a confocal laser microscope (Carl Zeiss) for the live cells while applying magnetic field as well as not applying magnetic field.

[2] = test system: IκBα phosphorylation (IKK); assay: Detection of IκBα phosphorylation: translocation of IκBα-mRFP with anti-phospho-IκBα (Ser32)-MNPs in HeLa cells; type: cell-based; conditions: HeLa cells treated with various chemical compounds and growth factors

| Substance | localization of cells expressing mRFP-Caspase3 by external magnetic force [1] | translocation of the IκBα-mRFP fusion protein under the magnetic field (interaction activator screening) [2] |
| --- | --- | --- |
| DEVD-MNPs: Streptavidin nanoparticle reacted with caspase-3 inhibitor II (DEVD)-biotin conjugate and TATHA2-biotin | only the cells (indicated with red arrows) expressing mRFP-Caspase3 were localized | – |
| TNF-α | – | observed to translocate the IκBα-mRFP fusion protein |
